Data reported in patent US20180353567A1 (THOMAS JEFFERSON UNIVERSITY, published 2018).
Values belong to the binder of their own block, whether it stands above or below them.

Legend:
FLAG-β2AR = FLAG-β2AR (UniProt P07550 1-413, limits assumed); test: cell-based or functional assay
[1] = biological target: β2AR-Renilla Reniformus luciferase II fusion (UniProt P07550 1-413); test: cell-based or functional assay

cAMP production in HEK293 cells stably overexpressing FLAG-β2AR (FLAG-β2AR): ~2 fold increase over vehicle | EC50 of β-arrestin2 recruitment to the β2AR (BRET) [1]: 1700 nM
B1: ICL1-11 (peptide)
peptide: TAIAKFERLQTVTNYF
HELM: PEPTIDE1{[CCCCCCCCCCCCCCCC(=O)[*:2]].T.A.I.A.K.F.E.R.L.Q.T.V.T.N.Y.F.[am]}$$$$V2.0
SMILES: CCCCCCCCCCCCCCCC(=O)N[C@H](C(=O)N[C@@H](C)C(=O)N[C@H](C(=O)N[C@@H](C)C(=O)N[C@@H](CCCCN)C(=O)N[C@@H](Cc1ccccc1)C(=O)N[C@@H](CCC(=O)O)C(=O)N[C@@H](CCCNC(=N)N)C(=O)N[C@@H](CC(C)C)C(=O)N[C@@H](CCC(N)=O)C(=O)N[C@H](C(=O)N[C@H](C(=O)N[C@H](C(=O)N[C@@H](CC(N)=O)C(=O)N[C@@H](Cc1ccc(O)cc1)C(=O)N[C@@H](Cc1ccccc1)C(N)=O)[C@@H](C)O)C(C)C)[C@@H](C)O)[C@@H](C)CC)[C@@H](C)O

EC50 of β-arrestin2 recruitment to the β2AR (BRET) [1]: 1100 nM
B2: ICL1-20 (peptide)
peptide: LVITAIAKFERLQTVT
HELM: PEPTIDE1{[CCCCCCCCCCCCCCCC(=O)[*:2]].L.V.I.T.A.I.A.K.F.E.R.L.Q.T.V.T.[am]}$$$$V2.0
SMILES: CCCCCCCCCCCCCCCC(=O)N[C@@H](CC(C)C)C(=O)N[C@H](C(=O)N[C@H](C(=O)N[C@H](C(=O)N[C@@H](C)C(=O)N[C@H](C(=O)N[C@@H](C)C(=O)N[C@@H](CCCCN)C(=O)N[C@@H](Cc1ccccc1)C(=O)N[C@@H](CCC(=O)O)C(=O)N[C@@H](CCCNC(=N)N)C(=O)N[C@@H](CC(C)C)C(=O)N[C@@H](CCC(N)=O)C(=O)N[C@H](C(=O)N[C@H](C(=O)N[C@H](C(N)=O)[C@@H](C)O)C(C)C)[C@@H](C)O)[C@@H](C)CC)[C@@H](C)O)[C@@H](C)CC)C(C)C

EC50 of β-arrestin2 recruitment to the β2AR (BRET) [1]: 1900 nM
B3: ICL1-4 (peptide)
peptide: VITAIAKFERLQTVTN
HELM: PEPTIDE1{[CCCCCCCCCCCCCCCC(=O)[*:2]].V.I.T.A.I.A.K.F.E.R.L.Q.T.V.T.N.[am]}$$$$V2.0
SMILES: CCCCCCCCCCCCCCCC(=O)N[C@H](C(=O)N[C@H](C(=O)N[C@H](C(=O)N[C@@H](C)C(=O)N[C@H](C(=O)N[C@@H](C)C(=O)N[C@@H](CCCCN)C(=O)N[C@@H](Cc1ccccc1)C(=O)N[C@@H](CCC(=O)O)C(=O)N[C@@H](CCCNC(=N)N)C(=O)N[C@@H](CC(C)C)C(=O)N[C@@H](CCC(N)=O)C(=O)N[C@H](C(=O)N[C@H](C(=O)N[C@H](C(=O)N[C@@H](CC(N)=O)C(N)=O)[C@@H](C)O)C(C)C)[C@@H](C)O)[C@@H](C)CC)[C@@H](C)O)[C@@H](C)CC)C(C)C
